Test results published in paper PMC4003281.

Target: DegP^S210A/R207P (Escherichia coli) (UniProt P0C0V0)
Test: fluorescence polarisation

## ^flC18–58, fluorescent peptide derived from residues 18–58 of lysozyme
  Kd: 1700 nM
